{
  "source": "paper PMC4114559",
  "about": "“Pigment Dispersing Factor Regulates Ecdysone Biosynthesis via Bombyx Neuropeptide G Protein Coupled Receptor-B2 in the Prothoracic Glands of Bombyx mori” (PLoS ONE, 2014)",
  "key": {"[1]": {"system": "PGs of B. mori", "assay": "Intracellular cAMP level in cultured PGs", "type": "cell-based, Bombyx mori", "details": "Ca2+-free lepidopteran saline, n = 4–8", "description": "(§1) Dissected PGs were rinsed with Grace's insect culture medium (Gibco) and pre-cultured individually in 100 µl medium in 96-well plates (BD Falcon) at 25°C for 30 min. To evaluate the effect of extracellular Ca^2+ on ecdysone biosynthesis, lepidopteran saline and lepidopteran saline using NaCl as a replacement for CaCl2 were used. For the pharmacological analysis, the PG was pre-treated with the inhibitor for 15 min during the pre-culture period. Following this treatment, the PG was cultured in the desired conditions for the desired period (Ecdysone assay: 3 hours; cAMP assay: 30 min; and Protein phosphorylation assay: 15 min). Actinomycin D, H-89 and cycloheximide (CHX) were purchased from Sigma; Rapamycin was purchased from Santa Cruz Biotechnology; and LY294002 was purchased from Merck. H-89 was dissolved in water. The other inhibitors were dissolved in DMSO. […]\nHEK293 cells were transfected with an empty mammalian expression vector (pME18S) or the full-length BNGR-B2 ORF inserted into the pME18S vector (BNGR-B2/pME18S) using Lipofectamine LTX with PLUS reagent (Invitrogen) according to the manufacturer's instructions. […] The luminescence was measured with a Wallac ARVO SX 1420 Multilabel Counter (PerkinElmer).\n(§2) Figure 3 Prothoracicotropic activities of PDF in vitro. […] Statistically significant differences were evaluated by Student's t-test (***P<0.001, **P<0.01, *P<0.05)."}, "[2]": {"system": "PGs", "details": "cited from earlier work", "from_the_text": "In many cases, a single hormone has multiple functions regulating many physiological phenomena. Thus, both the regulation of receptor expression in the target tissue and the regulation of hormone release are important for the hormone to only affect the target tissue at the appropriate time. In the case of PTTH, the titer of the hormone in the hemolymph is clearly correlated with the ecdysteroid titer ... || In insects, neuropeptide hormones affect the target tissue via humoral and neuronal pathways. […] The increase in intracellular cAMP is thought to be regulated by Ca^2+ signaling in the PTTH signaling pathway, [37]. […] PDF sig ... || (+ 1 further places)"}, "[3]": {"system": "PGs of B. mori", "assay": "Ecdysone biosynthesis in cultured PGs (LC-MS/MS)", "type": "cell-based, Bombyx mori", "description": "Two strains of the silkworm B. mori were used for this study. The p50T strain was used for NGS analysis and tissue distribution analysis, and the Kinshu x Showa strain was used for other experiments. The p50T strain was reared on mulberry leaves at room temperature. The Kinshu x Showa strain was reared on an artificial diet (SilkMate PS: Nihon Nosan Kogyo) at 25°C under a 16L:8D photoperiod. The first feeding day was designated as day 0.\nas §1\nPrior to ecdysteroids extraction, the 100 µl of cultured medium was diluted with equal volume of MilliQ water. […] Quantification of ecdysteroids using LC-MS/MS was performed as previously described with some modifications. […] The separated ecdysteroids were quantified with the QTRAP5500 MS/MS system (AB SCIEX) using MRM mode. For the quantitative analysis, standard curves were generated with concentrations of 0.98–1000 ng/ml.\nThe effect of PDF and DH31 on ecdysone biosynthesis was evaluated in the PGs of B. mori. The PGs of V7 larvae were cultured with PDF or DH31, and the amount of ecdysone synthesized was measured using LC-MS/MS [21]. […]\nas §2"}},
  "data": [
    {"molecule": "PTTH: prothoracicotropic hormone, humoral pathway-mediated tropic hormone (protein, UniProt P17219 116-224, looked up, Prothoracicotropic hormone) Prothoracicotropic hormone: GNIQVENQAIPDPPCTCKYKKEIEDLGENSVPRFIETRNCNKTQQPTCRPPYICKESLYSITILKRRETKSQESLEIPNELKYRWVAESHPVSVACLCTRDYQLRYNNN", "values": [
      {"measurement": "effect of Ca2+ depletion on induced upregulation of intracellular cAMP levels", "setting": "[1]", "result": "suppressed PTTH-induced upregulation of intracellular cAMP levels"},
      {"measurement": "response of V4 PGs, ecdysone synthesis in vitro (literature)", "setting": "[2]; PGs of V4, ref [8]", "result": "capable of responding to PTTH stimulus and synthesize ecdysone in vitro"},
      {"measurement": "ecdysone biosynthesis when extracellular Ca2+ is depleted (literature)", "setting": "[2]; extracellular Ca2+ depleted, ref [27], [37]", "result": "cannot stimulate ecdysone biosynthesis when extracellular Ca^2+ is depleted"},
      {"measurement": "effect of a transcription inhibitor on PTTH- and dbcAMP-induced ecdysone biosynthesis (literature)", "setting": "[2]; ref [39]", "result": "ecdysone biosynthesis was suppressed by a transcription inhibitor"},
      {"measurement": "ecdysone biosynthesis without extracellular Ca2+", "setting": "[3]; Ca2+-free lepidopteran saline (CaCl2 replaced by NaCl), n = 6", "result": "did not induce ecdysone biosynthesis"},
      {"measurement": "EC50", "setting": "[3]; dose-response, cultured PGs of V7 larvae, 3 hours, LC-MS/MS, PTTH n = 10–38, read-out: EC50 (ecdysone biosynthesis, prothoracicotropic activity)", "result": 0.108, "unit": "nM"},
      {"measurement": "concentration of highest prothoracicotropic activity", "setting": "[3]; dose-response, cultured PGs of V7 larvae, LC-MS/MS", "result": "10^−9 M"}
    ]}
  ]
}
